Laboratory results as given in PMC9364601.

What was measured:
[1] = biological target: microtubules polymerized from tubulin purified from goat brain, Taxol-stabilised (goat)
[2] = biological target: microtubules polymerized from tubulin purified from goat brain, Taxol-stabilised (goat); experiment: single-molecule motility assay (TIRF); Taxol-stabilised MTs adsorbed on the coverslip, purified fluorescent motors in the motility mix; P12 buffer pH 6.8, BSA, 2 mM ATP, room temperature; run time and detachment rate computed from run length and velocity
[3] = biological target: microtubules polymerized from tubulin purified from goat brain, Taxol-stabilised (goat); remark: listed apart in the source

Molecule: KHC(1–560)-mCit-Flag (from UniProt P56536 1-560) (domain or fragment)
- Km for microtubules of the MT-stimulated ATPase (Michaelis-Menten fit; 10 nM motor, 1-80 µM MTs, BRB80, room temperature) [1]: 10.2 µM
- detachment rate from the MT (koff) [2]: 0.72 s⁻¹
- mean run time (average time spent on the MT) [2]: 1.39 s

Molecule: KIF1A R167C mutant motor, purified (domain or fragment)
- microtubule affinity from the enzyme kinetics of the MT-stimulated ATPase, decrease compared to wild-type motors (times (decrease against wild type)) [3]: 1.5

Molecule: KIF1A(1-393LZ)-mCit-Flag (from UniProt F1M4A4 1-393) (domain or fragment)
- Km for microtubules of the MT-stimulated ATPase (Michaelis-Menten fit; 10 nM motor, 1-80 µM MTs, BRB80, room temperature) [1]: 7.03 µM
- detachment rate from the MT (koff) [2]: 0.23 s⁻¹
- mean run time (average time spent on the MT) [2]: 4.38 s

Molecule: KIF16B(1–400)-mCit-Flag (from UniProt Q96L93 1-400) (domain or fragment)
- Km for microtubules of the MT-stimulated ATPase (Michaelis-Menten fit; 10 nM motor, 1-80 µM MTs, BRB80, room temperature) [1]: 2.43 µM
- detachment rate from the MT (koff) [2]: 0.1 s⁻¹
- mean run time (average time spent on the MT) [2]: 9.83 s

B1: KIF13A(1-411ΔP390)-mCit-Flag (domain or fragment)
chain: MSDTKVKVAVRVRPMNRRELELNTKCVVEMEGNQTVLHPPPSNTKQGERKPPKVFAFDYCFWSMDESNTTKYAGQEVVFKCLGEGILEKAFQGYNACIFAYGQTGSGKSFSMMGHAEQLGLIPRLCCALFKRISLEQNESQTFKVEVSYMEIYNEKVRDLLDPKGSRQSLKVREHKVLGPYVDGLSQLAVTSFEDIESLMSEGNKSRTVAATNMNEESSRSHAVFNIIITQTLYDLQSGNSGEKVSKVSLVDLAGSERVSKTGAAGERLKEGSNINKSLTTLGLVISSLADQAAGKGKSKFVPYRDSVLTWLLKDNLGGNSQTSMIATISPAADNYEETLSTLRYADRAKRIVNHAVVNEDPNAKVIRELREEVEKLREQLSQAEAMKAELKEKLEESEKLIKELTVTWE
- Km for microtubules of the MT-stimulated ATPase (Michaelis-Menten fit; 10 nM motor, 1-80 µM MTs, BRB80, room temperature) [1]: 5.16 µM
- detachment rate from the MT (koff) [2]: 0.15 s⁻¹
- mean run time (average time spent on the MT) [2]: 6.61 s

B2: KIF13B(1-412ΔP391)-mCit-Flag (domain or fragment)
chain: MGDSKVKVAVRIRPMNRRETDLHTKCVVDVDANKVILNPVNTNLSKGDARGQPKVFAYDHCFWSMDESVKEKYAGQDIVFKCLGENILQNAFDGYNACIFAYGQTGSGKSYTMMGTADQPGLIPRLCSGLFERTQKEENEEQSFKVEVSYMEIYNEKVRDLLDPKGSRQTLKVREHSVLGPYVDGLSKLAVTSYKDIESLMSEGNKSRTVAATNMNEESSRSHAVFKITLTHTLYDVKSGTSGEKVGKLSLVDLAGSERATKTGAAGDRLKEGSNINKSLTTLGLVISALADQSAGKNKNKFVPYRDSVLTWLLKDSLGGNSKTAMVATVSPAADNYDETLSTLRYADRAKHIVNHAVVNEDPNARIIRDLREEVEKLREQLTKAEAMKSELKDRLEESEKLIQEMTVTWE
- Km for microtubules of the MT-stimulated ATPase (Michaelis-Menten fit; 10 nM motor, 1-80 µM MTs, BRB80, room temperature) [1]: 4.23 µM
- detachment rate from the MT (koff) [2]: 0.12 s⁻¹
- mean run time (average time spent on the MT) [2]: 8.06 s
